Consider one protein from patent US20160340402A1 (ALMAC DISCOVERY, published 2016).

The series deals with the molecule itself. Put plainly: SDS PAGE and native PAGE, non-reducing against reducing conditions (self-association).

B1: full length recombinant His-tagged FKBP-L protein (variant Thr181, Gly186), N-terminal poly-histidine tag (other)
chain: MRGSHHHHHHGMASMTGGQQMGRDLYDDDDKDRWGSMETPPVNTIGEKDTSQPQQEWEKNLRENLDSVIQIRQQPRDPPTETLELEVSPDPASQILEHTQGAEKLVAELEGDSHKSHGSTSQMPEALQASDLWYCPDGSFVKKIVIRGHGLDKPKLGSCCRVLALGFPFGSGPPEGWTELTMGVGPWREETWGELIEKCLESMCQGEEAELQLPGHTGPPVGLTLASFTQGRDSWELETSEKEALAREERARGTELFRAGNPEGAARCYGRALRLLLTLPPPGPPERTVLHANLAACQLLLGQPQLAAQSCDRVLEREPGHLKALYRRGVAQAALGNLEKATADLKKVLAIDPKNRAAQEELGKVVIQGKNQDAGLAQGLRKMFG
notes: also called recombinant FKBP-L; rFKBP-L
On to B1, for which the binding result is given as “binds”.
